Patent US8444970B2, “Compositions and methods for treating ocular diseases and conditions” (Lpath, Inc., priority 2006, dated 2013)

Columns and labels:
[1] = Competitive ELISA for specificity / cross-reactivity to bioactive lipids; type: binding; conditions: for recognition of ceramide-1-phosphate (C1P): competitor lipid C1P; for cross-reactivity to lysophosphatidic acid (LPA): competitor lipid LPA; for cross-reactivity with sphingosylphosphorylcholine (SPC): competitor lipid SPC
Description: Screening of serum and cell supernatant for S1P-specific antibodies was by direct ELISA using a thiolated S1P analog as the antigen. A standard ELISA was performed, as described below, except that 50 ul of sample (serum or cell supernatant) was diluted with an equal volume of PBS/0.1% Tween-20 (PBST) during the primary incubation. ELISAs were performed in 96-well high binding ELISA plates (Costar) coated with 0.1 μg of chemically-synthesized thiolated-S1P conjugated to BSA in binding buffer (33.6 mM Na2CO3, 100 mM NaHCO3; pH 9.5). The thiolated-S1P-BSA was incubated at 37° C. for 1 hr. at 4° C. overnight in the ELISA plate wells. The plates were then washed four times with PBS (137 mM NaCl, 2.68 mM KCl, 10.14 mM Na2HPO4, 1.76 mM KH2PO4; pH 7.4) and blocked with PBST for 1 hr. at room temperature. For the primary incubation step, 75 uL of the sample (containing the S1P to be measured), was incubated with 25 uL of 0.1 ug/mL anti-S1P mAb diluted in PBST and added to a well of the ELISA plate. Each sample was performed in triplicate wells. Following a 1 hr. incubation at room temperature, the ELISA plates were washed four times with PBS and incubated with 100 ul per well of 0.1 ug/mL HRP goat anti-mouse secondary (Jackson Immunoresearch) for 1 hr. at room temperature. Plates were then washed four times with PBS and exposed to tetramethylbenzidine (Sigma) for 1-10 minutes. The detection reaction was stopped by the addition of an equal volume of 1M H2SO4. Optical density of the samples was determined by measurement at 450 nm using an EL-X-800 ELISA plate reader (Bio-Tech).
For cross reactivity, a competitive ELISA was performed as described above, except for the following alterations. The primary incubation consisted of the competitor (S1P, SPH, LPA, etc.) and a biotin-conjugated anti-S1P mAb. Biotinylation of the purified monoclonal antibody was performed using the EZ-Link Sulfo-NHS-Biotinylation kit (Pierce). Biotin incorporation was determined as per kit protocol and ranged from 7 to 11 biotin molecules per antibody. The competitor was prepared as follows: lipid stocks were sonicated and dried under argon before reconstitution in DPBS/BSA [1 mg/ml fatty acid free BSA (Calbiochem) in DPBS (Invitrogen 14040-133)]. Purified anti-S1P mAb was diluted as necessary in PBS/0.5% Triton X-100. Competitor and antibody solutions were mixed together so to generate 3 parts competitor to 1 part antibody. A HRP-conjugated streptavidin secondary antibody (Jackson Immunoresearch) was used to generate signal.
i. Specificity. The humanized variants were tested for specificity in a competitive ELISA assay (FIG. 1) against S1P and several other biolipids. This assay has the added benefit to allow for epitope mapping.

[2] = system: Swiss 3T3 fibroblasts; assay: S1P-stimulated fibroblast proliferation (3H-thymidine incorporation); type: cell-based; conditions: 1 ug/mL antibody, 12-24 hr
Description: FIG. 7. […] See Example 7, below, for experimental details. […] In these experiments, fibroblasts were serum-starved and then treated with 0, 0.1, 0.5, or 1 μM S1P+/−1 μg/mL SPHINGOMAB for 12-24 hr. […] SPHINGOMAB neutralized each of these S1P effects. SPHINGOMAB reduced perivascular fibrosis in vivo in a murine model of a permanent myocardial infarction (E).
S1P makes profound contributions to wound healing by activating fibroblast migration, proliferation and collagen production; SPHINGOMAB neutralizes these effects. Several studies using multiple types of fibroblasts confirm S1P's ability to promote wound healing: 1) S1P increased Swiss-3T3 fibroblast proliferation as measured by ^3H-thymidine incorporation using standard methods (FIG. 7A); 2) S1P promoted the migration of cardiac fibroblasts in a standard scratch wound healing assay. […] In each of these assays, SPHINGOMAB neutralized S1P's. It is anticipated that ocular fibroblasts would respond similarly to S1P and SPHINGOMAB.

B1: LT1002: murine anti-S1P monoclonal antibody, IgG1 kappa, hybridoma clone 306D326.26 (antibody, listed as Mus sp., V domains shown)
VH: QAHLQQSDAELVKPGASVKISCKVSGFIFIDHTIHWMKQRPEQGLEWIGCISPRHDITKYNEMFRGKATLTADKSSTTAYIQVNSLTFEDSAVYFCARGGFYGSTIWFDFWGQGTTLTVS
VL: ETTVTQSPASLSMAIGEKVTIRCITTTDIDDDMNWFQQKPGEPPNLLISEGNILRPGVPSRFSSSGYGTDFLFTIENMLSEDVADYYCLQSDNLPFTFGSGTKLEIK
For B1, the “Specificity (ELISA)” value ([1]; In vitro activity, Table 7) was “High”, the “recognition of ceramide-1-phosphate (C1P)” value ([1]; listed as SPHINGOMAB) was “did not recognize” and the “recognition of ceramide-1-phosphate (C1P)” value ([1]; listed as anti-S1P mAb) was “no antibody binding was observed”. The “cross-reactivity with dihydrosphingosine-1-phosphate (DH-S1P)” value ([1]; competitor lipid DH-S1P) was “did cross react”, the “recognition of dihydrosphingosine (DH-SPH)” value ([1]; competitor lipid DH-SPH) was “did not recognize” and the “cross-reactivity to lysophosphatidic acid (LPA)” value ([1]; listed as SPHINGOMAB) was “no cross-reactivity”. The “cross-reactivity to lysophosphatidic acid (LPA)” value ([1]; listed as anti-S1P mAb) was “no binding”, the “recognition of phosphatidyl ethanolamine (PE)” value ([1]; competitor lipid PE) was “did not recognize” and the “recognition of phosphatidyl serine (PS)” value ([1]; competitor lipid PS) was “did not recognize”. The “recognition of sphingomyelin (SM)” value ([1]; competitor lipid SM) was “did not recognize”, the “cross-reactivity with sphingosylphosphorylcholine (SPC)” value ([1]; listed as SPHINGOMAB) was “to a lesser extent” and the “cross-reactivity with sphingosylphosphorylcholine (SPC)” value ([1]; listed as anti-S1P mAb) was “somewhat reduced”. The “cross-reactivity to sphingosine (SPH)” value ([1]; competitor lipid SPH) was “no cross-reactivity” and the “S1P-stimulated Swiss 3T3 fibroblast proliferation” value [2] was “neutralized”.
